Test results taken from publication PMC12622308.

Biological target: KFERQ-PAmCherry-Flag
Assay: co-IP (IP: HA, IB: Flag), western blot quantification
Conditions: HEK293T SIRT2KD cells; parent: est. 1.0; read off a plot

A ratio to parent of 1.6 was found for HSC70-HA WT (from UniProt P11142) K557R in this work.
